The values below come from ChEMBL document CHEMBL1143427, “Interactions of ceftobiprole with beta-lactamases from molecular classes A to D” (Antimicrob Agents Chemother, 2007).

The term Km denotes the substrate concentration at which the rate is half of its maximum. The term kcat denotes the maximal rate divided by the concentration of active sites. What is called kcat/Km is the second-order rate constant that governs catalysis at low substrate concentration.

Substrate in data set [1]: CC(C)(O/N=C(\C(=O)N[C@@H]1C(=O)N2C(C(=O)[O-])=C(C[n+]3ccccc3)CS[C@H]12)c1csc(N)n1)C(=O)O
To be noted: Escherichia coli.

Substrate in data set [2]: CC1(C)S[C@@H]2[C@H](NC(=O)Cc3ccccc3)C(=O)N2[C@H]1C(=O)O
The note with it: Escherichia coli.

Substrate in data set [3]: CO/N=C(\C(=O)N[C@@H]1C(=O)N2C(C(=O)[O-])=C(C[N+]3(C)CCCC3)CS[C@H]12)c1csc(N)n1
To be noted: Escherichia coli.

Substrate in data set [4]: Nc1nc(/C(=N/O)C(=O)N[C@@H]2C(=O)N3C(C(=O)O)=C(/C=C4\CCN([C@@H]5CCNC5)C4=O)CS[C@H]23)ns1
To be noted: Escherichia coli.

Substrate in data set [5]: O=C(Cc1cccs1)N[C@@H]1C(=O)N2C(C(=O)[O-])=C(C[n+]3ccccc3)CS[C@H]12
To be noted: Escherichia coli.

Substrate in data set [6]: CC(C)(O/N=C(\C(=O)N[C@@H]1C(=O)N2C(C(=O)[O-])=C(C[n+]3ccccc3)CS[C@H]12)c1csc(N)n1)C(=O)O
The note with it: Escherichia coli. The source holds these as a separate data set.

Substrate in data set [7]: CC1(C)S[C@@H]2[C@H](NC(=O)Cc3ccccc3)C(=O)N2[C@H]1C(=O)O
The note with it: Escherichia coli. This is another data set of the same source.

Substrate in data set [8]: CO/N=C(\C(=O)N[C@@H]1C(=O)N2C(C(=O)[O-])=C(C[N+]3(C)CCCC3)CS[C@H]12)c1csc(N)n1
To be noted: Escherichia coli. This is another data set of the same source.

Substrate in data set [9]: Nc1nc(/C(=N/O)C(=O)N[C@@H]2C(=O)N3C(C(=O)O)=C(/C=C4\CCN([C@@H]5CCNC5)C4=O)CS[C@H]23)ns1
To be noted: Escherichia coli. The source holds these as a separate data set.

Substrate in data set [10]: O=C(Cc1cccs1)N[C@@H]1C(=O)N2C(C(=O)[O-])=C(C[n+]3ccccc3)CS[C@H]12
To be noted: Escherichia coli. The source holds these as a separate data set.

Substrate in data set [11]: CC(C)(O/N=C(\C(=O)N[C@@H]1C(=O)N2C(C(=O)[O-])=C(C[n+]3ccccc3)CS[C@H]12)c1csc(N)n1)C(=O)O
The experiment in a line: (§1) Activity of Serratia marcescens SME3 assessed as drug hydrolysis by spectrophotometry.

Substrate in data set [12]: CC1(C)S[C@@H]2[C@H](NC(=O)Cc3ccccc3)C(=O)N2[C@H]1C(=O)O
Described as §1.

Substrate in data set [13]: CO/N=C(\C(=O)N[C@@H]1C(=O)N2C(C(=O)[O-])=C(C[N+]3(C)CCCC3)CS[C@H]12)c1csc(N)n1
Described as §1.

Substrate in data set [14]: Nc1nc(/C(=N/O)C(=O)N[C@@H]2C(=O)N3C(C(=O)O)=C(/C=C4\CCN([C@@H]5CCNC5)C4=O)CS[C@H]23)ns1
The description is as §1.

Substrate in data set [15]: O=C(Cc1cccs1)N[C@@H]1C(=O)N2C(C(=O)[O-])=C(C[n+]3ccccc3)CS[C@H]12
The data set is described as §1.

Substrate in data set [16]: CC(C)(O/N=C(\C(=O)N[C@@H]1C(=O)N2C(C(=O)[O-])=C(C[n+]3ccccc3)CS[C@H]12)c1csc(N)n1)C(=O)O
Description: (§2) Ratio of Kcat to Km of Serratia marcescens SME3 assessed as drug hydrolysis by spectrophotometry.

Substrate in data set [17]: CC1(C)S[C@@H]2[C@H](NC(=O)Cc3ccccc3)C(=O)N2[C@H]1C(=O)O
Described as §2.

Substrate in data set [18]: CO/N=C(\C(=O)N[C@@H]1C(=O)N2C(C(=O)[O-])=C(C[N+]3(C)CCCC3)CS[C@H]12)c1csc(N)n1
Described as §2.

Substrate in data set [19]: Nc1nc(/C(=N/O)C(=O)N[C@@H]2C(=O)N3C(C(=O)O)=C(/C=C4\CCN([C@@H]5CCNC5)C4=O)CS[C@H]23)ns1
The description is as §2.

Substrate in data set [20]: O=C(Cc1cccs1)N[C@@H]1C(=O)N2C(C(=O)[O-])=C(C[n+]3ccccc3)CS[C@H]12
The description is as §2.

Substrate in data set [21]: CC(C)(O/N=C(\C(=O)N[C@@H]1C(=O)N2C(C(=O)[O-])=C(C[n+]3ccccc3)CS[C@H]12)c1csc(N)n1)C(=O)O
The experiment in a line: (§3) Activity of Escherichia coli CTX-M-15 assessed as drug hydrolysis by spectrophotometry.

Substrate in data set [22]: CC1(C)S[C@@H]2[C@H](NC(=O)Cc3ccccc3)C(=O)N2[C@H]1C(=O)O
The data set is described as §3.

Substrate in data set [23]: CO/N=C(\C(=O)N[C@@H]1C(=O)N2C(C(=O)O)=C(COC(C)=O)CS[C@H]12)c1csc(N)n1
Described as §3.

Substrate in data set [24]: CO/N=C(\C(=O)N[C@@H]1C(=O)N2C(C(=O)[O-])=C(C[N+]3(C)CCCC3)CS[C@H]12)c1csc(N)n1
The description is as §3.

Substrate in data set [25]: Nc1nc(/C(=N/O)C(=O)N[C@@H]2C(=O)N3C(C(=O)O)=C(/C=C4\CCN([C@@H]5CCNC5)C4=O)CS[C@H]23)ns1
The description is as §3.

Substrate in data set [26]: O=C(Cc1cccs1)N[C@@H]1C(=O)N2C(C(=O)[O-])=C(C[n+]3ccccc3)CS[C@H]12
Described as §3.

Substrate in data set [27]: CC(C)(O/N=C(\C(=O)N[C@@H]1C(=O)N2C(C(=O)[O-])=C(C[n+]3ccccc3)CS[C@H]12)c1csc(N)n1)C(=O)O
The note with it: Escherichia coli. This is another data set of the same source.

Substrate in data set [28]: CC1(C)S[C@@H]2[C@H](NC(=O)Cc3ccccc3)C(=O)N2[C@H]1C(=O)O
The note with it: Escherichia coli. The source holds these as a separate data set.

Substrate in data set [29]: CO/N=C(\C(=O)N[C@@H]1C(=O)N2C(C(=O)O)=C(COC(C)=O)CS[C@H]12)c1csc(N)n1
To be noted: Escherichia coli.

Substrate in data set [30]: CO/N=C(\C(=O)N[C@@H]1C(=O)N2C(C(=O)[O-])=C(C[N+]3(C)CCCC3)CS[C@H]12)c1csc(N)n1
To be noted: Escherichia coli. The source holds these as a separate data set.

Substrate in data set [31]: Nc1nc(/C(=N/O)C(=O)N[C@@H]2C(=O)N3C(C(=O)O)=C(/C=C4\CCN([C@@H]5CCNC5)C4=O)CS[C@H]23)ns1
To be noted: Escherichia coli. This is another data set of the same source.

Substrate in data set [32]: O=C(Cc1cccs1)N[C@@H]1C(=O)N2C(C(=O)[O-])=C(C[n+]3ccccc3)CS[C@H]12
The note with it: Escherichia coli. The source holds these as a separate data set.

B1: Class A carbapenemase KPC-2 (Escherichia coli), A8DS27 (protein)
chain: MSLYRRLVLLSCLSWPLAGFSATALTNLVAEPFAKLEQDFGGSIGVYAMDTGSGATVSYRAEERFPLCSSFKGFLAAAVLARSQQQAGLLDTPIRYGKNALVPWSPISEKYLTTGMTVAELSAAAVQYSDNAAANLLLKELGGPAGLTAFMRSIGDTTFRLDRWELELNSAIPGDARDTSSPRAVTESLQKLTLGSALAAPQRQQFVDWLKGNTTGNHRIRAAVPADWAVGDKTGTCGVYGTANDYAVVWPTGRAPIVLAVYTRAPNKDDKHSEAVIAAAARLALEGLGVNGQ
Take B1: the Michaelis-Menten constant (Km) turned out to be 230 µM in data set [1]; 30 µM in data set [2]; 540 µM in data set [3]; 340 µM in data set [4]; 510 µM in [5]. The kcat in data set [1] was determined as 0.38 s⁻¹; in data set [2] it was 60 s⁻¹; in data set [3], 12 s⁻¹; in data set [4], 110 s⁻¹; in [5], 390 s⁻¹. Also, the catalytic efficiency (kcat/Km) in [6] was 1700 M⁻¹ s⁻¹; in data set [7] it was 2e+06 M⁻¹ s⁻¹; in [8] it was 22000 M⁻¹ s⁻¹; in data set [9], 320000 M⁻¹ s⁻¹; in data set [10], 770000 M⁻¹ s⁻¹.

B2: Carbapenem-hydrolyzing beta-lactamase SME-3 (Serratia marcescens), Q6PRG8 (protein)
chain: MSNKVNFKTASFLFSVCLALSAFNAHANKSDAAAKQIKKLEEDFDGRIGVFAIDTGSGNTFGYRSDERFPLCSSFKGFLAAAVLERVQQKKLDINQKVKYESRDLEYYSPITTKYKGSGMTLGDMASAALQYSDNGATNIIMERFLGGPEGMTKFMRSIGDNEFRLDRWELELNTAIPGDKRDTSTPKAVANSLNKLALGNVLNAKVKAIYQNWLKGNTTGDARIRASVPADWVVGDKTGSCGAYGTANDYAVIWPKNRAPLIVSIYTTRKSKDDKHSDKTIAEASRIAIQAID
Take B2: the Michaelis constant (Km) was 170 µM in data set [11]; 2.2 µM in data set [12]; 280 µM in [13]; 270 µM in data set [14]; 400 µM in data set [15]. The kcat came to 0.16 s⁻¹ in [11]; 8.8 s⁻¹ in [12]; 1.5 s⁻¹ in data set [13]; 5.9 s⁻¹ in data set [14]; 1200 s⁻¹ in [15]. The kcat/Km in [16] is 940 M⁻¹ s⁻¹; in data set [17] it was 4e+06 M⁻¹ s⁻¹; in data set [18] it was 5400 M⁻¹ s⁻¹; in data set [19] it was 22000 M⁻¹ s⁻¹; in data set [20] it was 3e+06 M⁻¹ s⁻¹.

B3: Beta-lactamase CTX-M (Escherichia coli), Q9EXV5 (protein)
chain: MVKKSLRQFTLMATATVTLLLGSVPLYAQTADVQQKLAELERQSGGRLGVALINTADNSQILYRADERFAMCSTSKVMAAAAVLKKSESEPNLLNQRVEIKKSDLVNYNPIAEKHVNGTMSLAELSAAALQYSDNVAMNKLIAHVGGPASVTAFARQLGDETFRLDRTEPTLNTAIPGDPRDTTSPRAMAQTLRNLTLGKALGDSQRAQLVTWMKGNTTGAASIQAGLPASWVVGDKTGSGGYGTTNDIAVIWPKDRAPLILVTYFTQPQPKAESRRDVLASAAKIVTDGL
In the case of B3, the Michaelis-Menten constant (Km) worked out at 240 µM in data set [21]; 8.7 µM in [22]; 26 µM in data set [23]; 180 µM in data set [24]; 19 µM in data set [25]; 39 µM in data set [26]. The kcat in data set [21] was found to be 4.4 s⁻¹; in data set [22] it was 47 s⁻¹; in data set [23], 180 s⁻¹; in data set [24], 45 s⁻¹; in data set [25], 270 s⁻¹; in [26], 190 s⁻¹. Further, the kcat/Km in data set [27] came out at 18000 M⁻¹ s⁻¹; in [28], 5.4e+06 M⁻¹ s⁻¹; in [29] it was 6.9e+06 M⁻¹ s⁻¹; in data set [30] it was 250000 M⁻¹ s⁻¹; in data set [31] it was 1.4e+07 M⁻¹ s⁻¹; in data set [32], 4.9e+06 M⁻¹ s⁻¹.
